Assay results published in publication PMC3900104.

B1: Myc-tagged DISC1, in COS7 [human] / FLAG-tagged TRAK1 (trafficking-protein-Kinesin-binding-1), aa 2-953, in COS7 [human] (parent)
chain 1: MPGGGPQGAPAAAGGGGVSHRAGSRDCLPPAACFRRRRLARRPGYMRSSTGPGIGFLSPAVGTLFRFPGGVSGEESHHSESRARQCGLDSRGLLVRSPVSKSAAAPTVTSVRGTSAHFGIQLRGGTRLPDRLSWPCGPGSAGWQQEFAAMDSSETLDASWEAACSDGARRVRAAGSLPSAELSSNSCSPGCGPEVPPTPPGSHSAFTSSFSFIRLSLGSAGERGEAEGCPPSREAESHCQSPQEMGAKAASLDGPHEDPRCLSRPFSLLATRVSADLAQAARNSSRPERDMHSLPDMDPGSSSSLDPSLAGCGGDGSSGSGDAHSWDTLLRKWEPVLRDCLLRNRRQMEVISLRLKLQKLQEDAVENDDYDKAETLQQRLEDLEQEKISLHFQLPSRQPALSSFLGHLAAQVQAALRRGATQQASGDDTHTPLRMEPRLLEPTAQDSLHVSITRRDWLLQEKQQLQKEIEALQARMFVLEAKDQQLRREIEEQEQQLQWQGCDLTPLVGQLSLGQLQEVSKALQDTLASAGQIPFHAEPPETIRSLQERIKSLNLSLKEITTKVCMSEKFCSTLRKKVNDIETQLPALLEAKMHAISGNHFWTAKDLTEEIRSLTSEREGLEGLLSKLLVLSSRNVKKLGSVKEDYNRLRREVEHQETAYETSVKENTMKYMETLKNKLCSCKCPLLGKVWEADLEACRLLIQSLQLQEARGSLSVEDERQMDDLEGAAPPIPPRLHSEDKRKTPLKVLEEWKTHLIPSLHCAGGEQKEESYILSAELGEKCEDIGKKLLYLEDQLHTAIHSHDEDLIQSLRRELQMVKETLQAMILQLQPAKEAGEREAAASCMTAGVHEAQA
chain 2: ALVFQFGQPVRAQPLPGLCHGKLIRTNACDVCNSTDLPEVEIISLLEEQLPHYKLRADTIYGYDHDDWLHTPLISPDANIDLTTEQIEETLKYFLLCAERVGQMTKTYNDIDAVTRLLEEKERDLELAARIGQSLLKKNKTLTERNELLEEQVEHIREEVSQLRHELSMKDELLQFYTSAAEESEPESVCSTPLKRNESSSSVQNYFHLDSLQKKLKDLEEENVVLRSEASQLKTETITYEEKEQQLVNDCVKELRDANVQIASISEELAKKTEDAARQQEEITHLLSQIVDLQKKAKACAVENEELVQHLGAAKDAQRQLTAELRELEDKYAECMEMLHEAQEELKNLRNKTMPNTTSRRYHSLGLFPMDSLAAEIEGTMRKELQLEEAESPDITHQKRVFETVRNINQVVKQRSLTPSPMNIPGSNQSSAMNSLLSSCVSTPRSSFYGSDIGNVVLDNKTNSIILETEAADLGNDERSKKPGTPGTPGSHDLETALRRLSLRRENYLSERRFFEEEQERKLQELAEKGELRSGSLTPTESIMSLGTHSRFSEFTGFSGMSFSSRSYLPEKLQIVKPLEGSATLHHWQQLAQPHLGGILDPRPGVVTKGFRTLDVDLDEVYCLNDFEEDDTGDHISLPRLATSTPVQHPETSAHHPGKCMSQTNSTFTFTTCRILHPSDELTRVTPSLNSAPTPACGSTSHLKSTPVATPCTPRRLSLAESFTNTRESTTTMSTSLGLVWLLKERGISAAVYDPQSWDRAGRGSLLHSYTPKMAVIPSTPPNSPMQTPTSSPPSFEFKCTSPPYDNFLASKPASSILREVREKNVRSSESQTDVSVSNLNLVDKVRRFGVAKVVNSGRAHVPTLTEEQGPLLCGPPGPAPALVPRGLVPEGLPLRCPTVTSAIGGLQLNSGIRRNRSFPTMVGSSMQMKAPVTLTSGILMGAKLSKQTSLR

Variants of: B1
Assay: co-immunoprecipitation (IP with Myc antibody, WB anti-FLAG), quantified
Details: with FLAG-tagged TRAK1 (trafficking-protein-Kinesin-binding-1), COS7 cells, n = 3 independent transfections, parent: 100, read off a plot

| Variant | percent of parent |
| --- | --- |
| chain 1 R35A R36A R37A R38A R41A R42A R47A | 43 % of DISC1 |
